Experimental data taken from the PETadex activity labels.

B1: unnamed (protein)
chain: MTPTLCRPLAAVLTSAAFAALTAVSASALAQTPQEPTEASLNATAGPFSVATESVRAPRGFGGGTIYYPTAAGRYGVVAISPGFTATQSSIAWLGRRMASHGLVVITMNTNSTLDQPASRANQLMAALNHVVSASGAAVQSRADGTRRAVAGHSMGGGGALIAARDNATLRAALPLTPWNTTTDFSGVRVPTLIVGADGDGVASVTRHARPFYASLPNATAKAYGELNSASHFTPNSTNTPIGRYGVTWMKRFVDADTRYSPFLCGAAHLAYATPAVFDRYQNNCPY
B2: unnamed (protein)
chain: MLGVMGWSMGGGGTLITVDDHPELKAAITLCAWNPGQTYRQNQVPTLLFAGTADVLAGGQSQGFYTSIPETTPKMLFEVQGADHFFANTPEGASGQCGKYGTAWLKVFLVGDECYRPFLLEPPSGTSDFRTNLE
B3: unnamed (protein)
chain: MPKSDRSTPQPARSQHGGFAKLSLGLTALLMSVLVHAQSNPFERGPEPTVASLEAAAGPYAVQTTQVGKGNSNDYARGTVYYPVANDGQFALIAIVPGYTERQAGVSWWGSRLASHGFVVVTVDTNAPGEFPPSRARALKDALATVVKLSQTSSSPFFGKIDASRQGIMGHSMGGGATLELARSNSKLKAAIPFAPWNSNSKVYTRVKVPTLIISCQRDAVAPVNSHANKFYDSFSATLDKALLEVTGGDHYCASTSASAANKAVVGKYGVAWMKRFLDNDTRYSQFLCGAPHQADLAGPIISSYKDSCPY
B4: unnamed (protein)
chain: MKLTFVPLAITVVATLTCTSVVAKINLVESQVIQISELKKPAESLIDKSAQTAALPIPPSIATCIDDSAISADNLSQAKDNGPFAISSKDIPRQSAIGFGGGTIHYPINASGCGLLAAIAVVPGFVSYESSIKWLGPRLAAWGFVVITINTDSIYDNPDSRARQLSAALDTIISDDNVGSIVDPNRLGAIGWSMGGGGALKLATVRDEVRAIVPLAPYHDKDYGEVSTPTLVIACQFDRIARNKKYGSMFYDKAIGPKMKVELNNASHFCPSYRFNEILLSKPIIAWMQRYINEDERFDKLLCANETYSENPRFSSYDYANCS
B5: unnamed (protein)
chain: MERGNHRAKWVIGLGLLALAAAAQSQTNPFQKGPDPTSTLLNATSGPFSVATSSVSSLAAQGFGGGTIYYPSTTGTYAVLAISPGFTATQSSIAWLGRRIATHGFVVITIDTNSTLDQPPSRATQLIAALRHVTDLSNATVRSRVDASRRGVAGHSMGGGGSLIAARDNPSLKAAVPLTAWSTTKVFSTVQVPTLVVGAENDTIASVSSHSIPFYTSLSSSLDKAYAELNNASHLAPNTTNTPIGRYSVAWVKRFMDNDTRYTPFLCGAPHQSYATSAVFSDYRSTCPY
B6: unnamed (protein)
chain: MPKYPFYSQWIVAIGALVFSINASAVTLDEVAATNKLTIKEQSTKIVSTPIASAVAITSPVSTPAVPSNCIADSIITAANLSDTRDKGPFSVAKKAVPRQLANGFGGGTIYYPTNAGGCGLLGGIAVIPGYVSYESSIKWWGPRLASWGFVVITIDTNSIYDDPDSRAAQLSAALDHMLRDNTVGAQIDSTRLGAIGWSMGGGGALQLATKRQTVRAIIPQTPYHDKDYGEMNTPALFITCQNDRIASNKKYSSRFYDKATGAKMKIEIKNGSHFCPSYRFNEILLSKPGIAWMHRYINGDTRFDQFLCSNDNYGNNPRISAYDYKLS
B7: unnamed (protein)
chain: MTTIIAKLAIAASAAVLATAAFAQQQGPEQTAAQLEAGKGPFTVATAKIATPSGYGGGTVYYPTNASGKVGLIVVAPGFTETQSAMNMWGPILASNGFAVINIDTKSTLDQPPARATQMMAALKQVSDLSKTTASPYYNKIDVTRQAVMGHSMGGGGTLVAATANPALKAAIPAAPWSLATKNFPTLAVPTMIFACQSDVIAPVSGHADRFWASFNKQLPSAFAEYAGAGHQCPTSQGGADRKLVFSKLGIAWFKRFVDGDTRYTQFITNDSRLSRFLTNGSF
B8: unnamed (protein)
chain: MRPPCCSAGATWLSRSRSRAAVVLTTLVATVSALLIVSAAPALAAPVPAPTTASLEATNGPLATASYTVPNPSGYGSGTITYPTGSGSYPGVVLMPGYQGTQQNLRWLAPRLASWGFVVVNVGTRTLTDDPESRGDQISAAGTQLLAFSNAVGNPITGKVNGTLGAAGHSMGGGGTMVALRDDARFRAGVPLAPYYQNGNFSSVAKPTFSLTCRSDVAAPGNTYALPWYNSMTRAEKLYVEVPGDHLCPMTGYGNKAKQGKWIVSFFSRWLRGDTRFSPFLCGAEREADRNNAALVTRWMDTCPY
B9: unnamed (protein)
chain: MKKNIFKKACLSALVIAFSLSAHSGGGGGDDGGSDQLPLPDSCNSNCGYEVGPNPTLSALEATQGPLSVSASTVSSSVDGFGGGTIYYPNNASQELATIAVAPGFTNTQSAIQWWGPLLASHGYVVITIDTNGRFDNPGSRSLQLDAALSYLISEGNRSSSDISGLVDENRLATMGFSMGGGGTLISASRNRLSAAVPMAPWNTGGNDFDAIGVPTLIFACEDDSTARINSHASPFYNSIPSSTDKAYMEINNGPHNCANGNNGNGNDALLSTYGVSWMKRFLDKDSRYDQFLCGPNHVANSKINEYRDTCNY
B10: unnamed (protein)
chain: MRPCSRSTNTTPPLRTRSRPMTALIALATTIGLALTLLTATAAPAAAADLLSQGKPVTSSSTENTSTPASAAVDGNTGTRWSSTFSDPQWLTVDLGATATISQVVLRWEAAYARSFRIQTSDNGTSWTTIHSTTTSTGGAQTLDVNGSGRYIRLYGTQRGTAYGYSLWEFQVYGSGEGTPPGSGIPDPTTVSLEATNGPLTTATYTVPSPSGYGSGTVTYPTASGSYPGIVLMPGYQGTQQNLQWLAPRLASWGFVVINVGTNTLTDDPESRGRQITAAGTQLLALGDAPGNPLSGKLNGTLGATGHSMGGGGVMAALRDDSRFRAGVPTAPYHPNGNFSGVTEPTFFLTCQSDAVAHGDRYAVPWYTSMSQAEKLYIEVPGDHLCPMTGYGNKAKQGKWMVSFFSLWLRADTRFSPFLCGPARDADKNDTSLVTRWMDTCQF
B11: unnamed (protein)
chain: MSSDKRLLFTLLHRTLLACALTFSAALPACGEEDPKEVTDSSSDDDDETPVDGDTTGDDDPEPMTMKDAGKSSVKDAGKPPPTPAVDAGSTAPKDKDSGTVGGIDAGPAKDAGTVVTPPTTAGDALVRGDAPTEKSASAKGPYAVKTYTSGYPDLPGYLDSTIHYPEGAQPPFAAVVIVPGFVSAQSSIQAWGPFFASHGIVTMTIGTNTPVDQPPMREAALLDALKTVKSENTREGSPLKDKLDLSRLAGMGWSMGGGGALLLGEHNPELKAVIALCPWNPGYSYAKIKMPTLFLAAQADTLAGGQSQGFYSSIPNSVPKILYEIAGADHWHNNDPANLQGAVGRYGLAWLKVFLEGDERYRDLLKVKGPSSSDWQSNVQ
B12: unnamed (protein)
chain: MRTAKDFARGNPLARLCILLALAVFPALSHAQTVIFQEPFNVGIGSFTADGTVNGGGTGASMHGRIQGYSTITSPAINTTGFTNLQLAWTQMCLNSDAGEACQLWYSVNNITWDLVYSTPFAPFNSPASIALPAAAAGQSQLRLRFVRLANSFEEVYDVDNISLTGTAGGGGTTSGSTSGGTSGGGGTPCQNGPAPSATSVQGDGPFTVGTYVVPNPSGYKAGTIYYPTNTVSGACTKFAGIVTMPGYQGTQNNLSWLGPRLASNGFVVINVDTNTLSDSPDQRGAEILSALNQLVSLSNASGNPISGKVDSAKLGAMGHSMGGGGTLVAARNAMIKAAIPMAPYHNTTTNFPDVHAPTLVVTCQGDPSAPAATYGRPMYNSLTTEKAYLELTTTDGHLCVMTGYGNKAVQSRYMTSWMKRWLDGDTRYTQFLCGTTSGSNGVTTWADTCPY
B13: unnamed (protein)
chain: MIRFKTGALTNTISLCLVVALGCGGGETPETSGPPPATQTNPTAQAGATATKPTGTAGAAAPTNTGRPMMTTPPTTTTPTMTTPATAGSAAPAAGSGGTPAATGAGGAPAAEAGSGAAGSAATAGSGAEDEAAAGKGGTEATGDKNHWIRGDDPPADLSGARPGPYKVERYTDGYRNGPAYADSTINYPVDAEPPFALVVVVPGFVSPQSSIASWGPFLASHGIVTMTIGTNLPTDLPETRKDALLDAMQSLKEENTREGSPLKGKLDTSYTATMGWSMGGGGTLLVANENPELKATISLCGWNPGYPYSKIKAPALMFASLGDPLAGGQSQGFYRSIPDETPKMLIEVGAGDHFVANNPASTSGVIGRYGLAWLKVYLEGDERYRKFLLEKPAVP
B14: unnamed (protein)
chain: MKTTKGTKIALIAFTLSFSLSAFSGGGGGGNNNGGLPAPNTCTSNCGFETGPNPNLNFVRASRGPLPTRTTVVSRSVDGFGGGTIYYPSNASEEMAAIAVSPGFTATQSSIDWWGPILASHGFVVITIDTNSRFDQPISRGRQLDSALSYLISENSRRNSPISGLVDETRLATMGHSMGGGGALRSASRNRLSAAMPMAPFNVGNNDFNQIRVPTMIMACENDVVAPVGIHARPFYNRIPGSTDKVLLEFNNGPHNCANGESSGNRPLLSTYGVSWMKRFLDKDRRYNQFLCGPNHVANNGISDFRSTCTF
B15: unnamed (protein)
chain: MEISNTRQLAVRSRARSRAETGGRKWTIGLGLLLLAAVAHAQTNPYAKGPDPTSSLLNATRGPFSITSTSVSRFVSGFGGGTIYYPTTSGSYAAIAISPGFTATQSSIAWLGQRIASHGFVAITINTNSVYDQPASRATQLMAALRYLTNSSTSAVRSRVDANRLGVAGHSMGGGGALIAARDNPSLKASVPLTAWSTSKNFSTVQVPTLVVGAENDSVAPVSSHSIPFYTSLSSFLEKAYAELNNASHFAPNSTNTPIGRYSVAWVKRFMDNDTRYSPFLCGAPHQSYATSTVFSEYRSTCPY

Substrate: BHET
Conditions: 120 h

Row | Protein | plate clearing
1 | B1 | not clears the plate
2 | B2 | not clears the plate
3 | B3 | clears the plate (z > 3 vs empty vector)
4 | B4 | not clears the plate
5 | B5 | not clears the plate
6 | B6 | not clears the plate
7 | B7 | not clears the plate
8 | B8 | not clears the plate
9 | B9 | not clears the plate
10 | B10 | not clears the plate
11 | B11 | not clears the plate
12 | B12 | not clears the plate
13 | B13 | not clears the plate
14 | B14 | not clears the plate
15 | B15 | not clears the plate
